Seven molecules from patent US20190367617A1 (AMPSOURCE BIOPHARMA SHANGHAI, published 2019) can be followed below.

Numbering of substitutions follows the chain as printed.

Assay [1] addresses T1, human ICOS/Fc (Sino Biological Inc.) (human, UniProt Q9Y6W8 21-141, limits assumed).
T1 construct: Bought protein; not shown: Fc
T1 sequence (looked up): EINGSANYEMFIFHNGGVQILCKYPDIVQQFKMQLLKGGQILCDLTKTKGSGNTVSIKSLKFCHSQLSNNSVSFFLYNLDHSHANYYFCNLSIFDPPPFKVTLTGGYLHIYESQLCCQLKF
Briefly: indirect ELISA, human ICOS/Fc coated at 0.1 µg/mL, HRP goat anti-mouse IgG. As to the method: (§1) Human PD-1/His, human ICOS/Fc, human CTLA4/His, human CD28/Fc, cynomolgus monkey PD-1/Fc, and mouse PD-1/His (all from Sino Biological Inc., Beijing, China) were diluted with PBS buffer to 0.1 μg/mL, and added to the 96-well plate at a volume of 100 μL/well and placed at 16° C. for 16 to 20 h. The PBS buffer was aspirated from the 96-well plate, and the plate was washed once with PBST (PBS containing 0.05% Tween 20, pH 7.4). 200 μL of PBST/1% no-fat milk was added to each well and incubated at room temperature for 1 h for blocking. The blocking solution was removed and the plate was washed 3 times with PBST. 100 μL of the anti-PD-1 antibody to be tested was added to each well, and incubated at room temperature for 1.5 h. The reaction solution was removed and the plate was washed 3 times with PBST. 50 μL of the HRP-labeled goat anti-mouse IgG secondary antibody (The Jackson Laboratory) diluted (dilution ratio 1:4000) was added to each well. Incubated at room temperature for 1 h. The plate was washed 3 times with PBST. 100 μL of the TMB was added to each well and incubated at room temperature for 5-10 min 50 μL of 0.2 M sulfuric acid was added to each well to terminate the reaction. Absorbance values were read at dual wavelengths of 450/620 nm in a microplate reader.

Assay [2] has as its target T2, cynomolgus monkey PD-1/Fc (Sino Biological Inc.) (cynomolgus monkey, UniProt B0LAJ3 25-170).
T2 construct: Bought protein
Briefly: indirect ELISA, cynomolgus monkey PD-1/Fc coated at 0.1 µg/mL, HRP goat anti-mouse IgG. As to the method: as §1
A general note: An ELISA detects its analyte on a solid surface through an enzyme-linked reagent.

Assay [3] deals with T3, mouse PD-1/His (Sino Biological Inc.) (mouse, UniProt Q02242 25-167).
T3 construct: Bought protein; not shown: His tag
T3 sequence (looked up): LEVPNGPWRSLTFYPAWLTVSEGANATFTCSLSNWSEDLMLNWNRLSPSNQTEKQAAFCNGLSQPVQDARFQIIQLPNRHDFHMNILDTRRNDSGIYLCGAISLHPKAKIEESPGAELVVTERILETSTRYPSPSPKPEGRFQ
Briefly: indirect ELISA, mouse PD-1/His coated at 0.1 µg/mL, HRP goat anti-mouse IgG. As to the method:
as §1

Assay [4] has as its target T4, human CTLA4/His (Sino Biological Inc.) (human, UniProt P16410 36-162, limits assumed).
T4 construct: Bought protein; not shown: His tag
Briefly: indirect ELISA, human CTLA4/His coated at 0.1 µg/mL, HRP goat anti-mouse IgG. As to the method:
as §1

For assay [5], the target named is T5, human PD-1/His (Sino Biological Inc.) (human, UniProt Q15116 25-170).
T5 construct: extracellular domain; Bought protein; also called extracellular domain fragment of PD-1 protein containing His tag; not shown: His tag
T5 sequence (Q15116 25-170): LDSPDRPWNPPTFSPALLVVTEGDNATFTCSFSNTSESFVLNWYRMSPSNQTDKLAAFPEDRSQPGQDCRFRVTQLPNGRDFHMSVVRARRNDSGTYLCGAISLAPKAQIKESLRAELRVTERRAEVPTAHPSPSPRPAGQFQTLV
The assay is described as follows: affinity and kinetic constants; method not restated, taken as BLI of Example 3.4.

Assay [6] deals with T6, Human PD-1 (Sino Biological Inc., Beijing, China) (human, UniProt Q15116 25-167).
T6 construct: also called hPD-1
T6 sequence (Q15116 25-167 limits assumed): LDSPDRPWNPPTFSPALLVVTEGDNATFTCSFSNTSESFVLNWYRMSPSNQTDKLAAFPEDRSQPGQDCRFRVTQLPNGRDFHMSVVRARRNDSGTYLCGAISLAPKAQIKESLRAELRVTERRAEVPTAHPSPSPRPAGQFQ
The assay is described as follows: competitive ELISA, human PD-1 coated at 0.1 µg/mL, competitor Keytruda-HRP. As to the method:
(§2) Human PD-1 (Sino Biological Inc., Beijing, China) was diluted to 0.1 μg/mL with PBS buffer and added to the 96-well plate at a volume of 100 μL/well and allowed to stand overnight at room temperature. The coating solution was removed, 200 μL of PBST/1% no-fat milk was added to each well and incubated at room temperature for 1 h for blocking. The blocking solution was removed and the plate was washed 3 times with PBST.

Assay [7] deals with T6, Human PD-1 (Sino Biological Inc., …). The assay is described as follows: competitive ELISA, human PD-1 coated at 0.1 µg/mL, competitor Opdivo-HRP. As to the method: as §2
The target in assay [8] is T7, mouse PD-1 (Sino Biological Inc., Beijing, China) (mouse, UniProt Q02242 25-167, limits assumed).
T7 sequence (looked up): T3 sequence (looked up)
Briefly: indirect ELISA, mouse PD-1 coated, HRP goat anti-human IgG. The source says:
(§3) The HRP-labeled goat anti-human IgG antibody (The Jackson Laboratory) was used as the secondary antibody, and the detailed assay procedure was as described in Example 2.

Assay [9] addresses T6, Human PD-1 (Sino Biological Inc., …). Briefly: indirect ELISA, human PD-1 coated at 0.1 µg/mL, HRP goat anti-human IgG.
Description: as §3

In assay [10] the target is T5, human PD-1/His (Sino Biological Inc.). Briefly: competitive ELISA: PD-1/His coated at 2 µg/mL, blocks biotin-labeled PD-L1/Fc. As to the method:
The extracellular domain fragment of PD-1 protein containing His tag was coated onto the 96-well ELISA plate.
PD-1/His was diluted to 2 μg/mL with PBS buffer, pH 7.2, and added to the 96 well ELISA plate at 100 μL per well and incubated with shaking at room temperature for 1 h. The PBS buffer was aspirated from the 96-well ELISA plate. 200 μL of PBST(PBS containing 0.05% Tween 20, pH 7.4)/1% no-fat milk was added to each well and incubated at room temperature for 1 h for blocking. The plate was washed 3 times with PBST. 50 μL of the anti-PD-1 antibody to be tested was added to each well, which was diluted with the blocking solution to an appropriate concentration. […] Incubating at room temperature for 1 h. The plate was washed 3 times with PBST. 100 μL of SA-Avidin-HRP (HRP-labeled streptavidin) diluted at 1:250 ratio with the blocking solution was added to each well, and incubated at room temperature for 1 h. Washing the plate 3 times with PBST. 100 μL of the TMB substrate solution was added to each well and incubated at room temperature for 5-10 min. Adding 50 μL of 0.2 M sulfuric acid to each well to terminate the reaction. The absorbance values were read at 450 nm in a microplate reader.

Assay [11] addresses T8, PD-1 expressed on the surface of activated human T cells (human, UniProt Q15116 25-288).
T8 construct: whole, on cells
The assay is described as follows: flow cytometry on activated human T cells, FITC goat anti-human IgG. As to the method: Fresh mononuclear cells were obtained from human peripheral blood by density gradient centrifugation (Lymphoprep™, human lymphocyte separation solution, […]), and high purity T lymphocytes were obtained using T cell isolation reagents ([…]). The T lymphocytes were stimulated with 5 μg/mL of the anti-CD3 antibody for 48 h, and cultured for 7 days after addition of 250 IU/mL of human IL-2. A large number of activated T lymphocytes were then obtained. […] The FITC signals were detected by flow cytometry.

Assay [12] has as its target T9, PD-1 overexpressed on the surface of CHO cells (Homo sapiens (Human), UniProt Q15116 25-288).
T9 construct: also called PD-1-overexpressing CHO cells
The assay is described as follows: flow cytometry on PD-1-overexpressing CHO cells, FITC goat anti-human IgG. An excerpt:
FACS (fluorescence activated cell sorting) is a test used for detection of the binding between proteins and cells. The test was used to detect the binding activity of the humanized anti-PD-1 antibodies of the present invention to native PD-1 expressed on the cell surface. The cells used in the test were PD-1-overexpressing CHO cells.

T9 sequence (Q15116 25-288 limits assumed): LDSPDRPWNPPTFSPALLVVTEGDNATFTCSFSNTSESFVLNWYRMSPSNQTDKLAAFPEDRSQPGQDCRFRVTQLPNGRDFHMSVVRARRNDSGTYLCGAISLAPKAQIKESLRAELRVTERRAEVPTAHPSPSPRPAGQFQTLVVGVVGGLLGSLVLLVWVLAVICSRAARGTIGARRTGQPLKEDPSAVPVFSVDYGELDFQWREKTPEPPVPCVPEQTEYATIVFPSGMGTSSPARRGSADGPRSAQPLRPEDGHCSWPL
T8 sequence (Q15116 25-288): as the sequence (Q15116 25-288 limits assumed) above
T4 sequence (P16410 36-162 limits assumed): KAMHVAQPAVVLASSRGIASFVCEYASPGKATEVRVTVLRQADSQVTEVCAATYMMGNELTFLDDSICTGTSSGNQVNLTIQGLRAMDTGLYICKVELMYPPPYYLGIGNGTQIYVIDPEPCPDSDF
T2 sequence (B0LAJ3 entry or part of it limits assumed): as the sequence (Q15116 25-170) above, with D2E, P10A, V19L, T35A, Q75R, T144A counted along it

B1: murine monoclonal antibody AB12N1 (antibody, mouse IgG1, V domains shown)
VH: QVQLVESGGGVVQPGRSLRLDCKASGITFSNSGMHWVRQAPGKGLEWVAVIWYDGSKRYYADSVKGRFTISRDNSKNTLFLQMNSLRAEDTAVYYCATNDDYWGQGTLVTV
VL: EIVLTQSPATLSLSPGERATLSCRASQSVSSYLAWYQQKPGQAPRLLIYDASNRATGIPARFSGSGSGTDFTLTISSLEPEDFAVYYCQQSSNWPRTFGQGTKVEIK
notes: subclass identified as mouse IgG1 (Kappa), purified from hybridoma supernatant; also called antibody of hybridoma clone #22
Consider B1, for which the binding result in assay [1], in assay [2], in assay [3] and in assay [4] was “no binding (tested: 10 µg/mL)” each time.

B2: humanized antibody AB12N3 (antibody, V domains shown)
VH: QVQLVESGGGVVQPGRSLRLSCAASGITFSNSGMHWVRQAPGKGLEWVAVWYDGSKRYYADSVKGRFTISRDNSKNTLYLQMNSLRAEDTAVYYCATNDDYWGQGTLVTV
VL: B1 VL
Regarding B2, in assay [5], the affinity, expressed as Kd, was 365 pM; the koff – broadly, the rate constant with which the complex falls apart – was determined as 2.28e-05 s⁻¹; the kon (usually the second-order rate constant of association) worked out at 62400 M⁻¹ s⁻¹.

B3: humanized antibody AB12N4 (antibody, V domains shown)
VH: B1 VH with D21S, K23A, F80Y
VL: B1 VL
In the case of B3, in assay [5], the Kd (in general, the free concentration of one partner at which half of the binding sites on the other are occupied at equilibrium, for simple one-to-one binding) stood at 378 pM; the koff was 2.41e-05 s⁻¹; the kon is 63700 M⁻¹ s⁻¹.

B4: humanized antibody AB12N5 (antibody, V domains shown)
VH: B2 VH with Y79F
VL: B1 VL
Regarding B4, in [5], the Kd is 414 pM, the koff worked out at 2.56e-05 s⁻¹ and the on-rate (kon) was 61900 M⁻¹ s⁻¹.

B5: mouse-human chimeric antibody AB12M2 (antibody, V domains shown)
VH: EVKLVESGGGLVKPGGSLKLSCAASGFTFSSYGMSWVRQTPEKRLEWVATISGGGRDTYYPDSVKGRFTISRDNAKNNLYLQMSSLRSEDTALYYCARQKDTSWFVHWGQGTLVTVSA
VL: not shown
In assay [5], B5 registered a Kd below 1 pM, a koff below 1e-07 s⁻¹ and a kon of 198000 M⁻¹ s⁻¹. Also, in assay [6], the “IC50 (read off the curve)” value is around 0.07 µg/mL. Further, in [7], the “IC50 (read off the curve)” value is around 0.08 µg/mL. Also, the binding result in assay [8] is on record as “no binding (tested: 10 µg/ml)”. For the same molecule, the EC50 (read off the curve) (as a rule, the concentration that produces a half-maximal response) in [9] was around 0.003 µg/mL.

B6: humanized antibody AB12M3 (antibody, V domains shown)
VH: B5 VH with K3Q, K13Q, K19R, T40A, E42G, R44G, S84N, S88A, A118S
VL: EIVLTQSPATLSLSPGERATLSCRASESVDDYGISFMNWFQQKPGQAPKLLIYVASNQGSGVPARFSGSGSGTDFSLTISSLEPDDTAMYFCQQSKEVPWTFGGGTKVEIK
notes: the description speaks of human IgG4 or IgG1 and human kappa only as embodiments
Turning to B6, in [10], the IC50 (in general, the concentration that gives 50% inhibition) is 114 pM. Moreover, the figures for the “EC50 (read off the curve)” value in [11], in [12] and in assay [9] were around 800 pM, around 1000 pM and around 0.003 µg/mL, respectively. In addition, the Kd in [5] is below 1 pM. In assay [5], the koff was below 1e-07 s⁻¹. This molecule gave a kon in [5] of 226000 M⁻¹ s⁻¹. Further, the “IC50 (read off the curve)” value in [6] was around 0.09 µg/mL; in [7] it was around 0.1 µg/mL. For the same molecule, the binding result in [8] is reported as “no binding (tested: 10 µg/ml)”.

B7: humanized antibody AB12M4 (antibody, V domains shown)
VH: B5 VH with K19R
VL: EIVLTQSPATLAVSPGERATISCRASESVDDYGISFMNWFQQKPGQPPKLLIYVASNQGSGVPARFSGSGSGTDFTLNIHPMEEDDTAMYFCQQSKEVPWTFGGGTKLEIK
Molecule B7 returned an IC50 in assay [10] of 96 pM. Moreover, in assay [12], the “EC50 (read off the curve)” value was around 1000 pM. Also, in [5], the Kd is below 1 pM, the off-rate (koff) was below 1e-07 s⁻¹ and the kon was found to be 213000 M⁻¹ s⁻¹. Also, the “IC50 (read off the curve)” value in [6] is around 0.09 µg/mL. In [7], the “IC50 (read off the curve)” value is around 0.1 µg/mL. For the same molecule, in assay [8], the binding result was “no binding (tested: 10 µg/ml)”. Moreover, the “EC50 (read off the curve)” value in assay [9] is around 0.003 µg/mL.
